The values that follow come from article doi:10.1101/2024.10.30.620894 (bioRxiv, 2024).

In series [1] the target is VLDLR(28-797)Δ(751-779)-C-tag (VLDLR ectodomain, VLDLR-ed) (human) (UniProt P98155). Nature of the series: ELISA. For orientation: ELISA stands for enzyme-linked immunosorbent assay.
The series “SEC” deals with the molecule itself. As to the kind of experiment: SEC. Background: Size exclusion chromatography separates by hydrodynamic size, large species first.

For orientation: Kd means the concentration at which binding is half-saturated. For orientation: stoichiometry N means the number of molecules, sites or subunits per partner or assembly.

“receptor-associated protein (RAP) (from UniProt P30533 36-357) (natural protein)” yielded a Kd in series [1] of 1.2 nM.

B1: wild-type clusterin (WT-Clu) (natural protein, human)
chain 1: DQTVSDNELQEMSNQGSKYVNKEIQNAVNGVKQIKTLIEKTNEERKTLLSNLEEAKKKKEDALNETRESETKLKELPGVCNETMMALWEECKPCLKQTCMKFYARVCRSGSGLVGRQLEEFLNQSSPFYFWMNGDRIDSLLENDRQQTHMLDVMQDHFSRASSIIDELFQDRFFTREPQDTYHYLPFSLPHRRPHFFFPKSRIVR
chain 2: SLMPFSPYEPLNFHAMFQPFLEMIHEAQQAMDIHFHSPAFQHPPTEFIREGDDDRTVCREIRHNSTGCLRMKDQCDKCREILSVDCSTNNPSQAKLRRELDESLQVAERLTRKYNELLKSYQWKMLNTSSLLEQLNEQFNWVSRLANLTQGEDQYYLRVTTVASHTSDSDVPSGVTEVVVKLFDSDPITVTVPVEVSRKNPKFMETVAEKALQEYRKKHREE
modifications: N-glycans (six in the whole protein) | N-glycans (six in the whole protein)
As for B1, the “stoichiometry N” value in the series “SEC” is 2. The same molecule gave a Kd in series [1] of 80 nM.
